Reference: PMC9482650, “Quantitative fragmentomics allow affinity mapping of interactomes” (Nature Communications, 2022)
Values belong to the binder of their own block, whether it stands above or below them.

Assays:
Assay in all cases: holdup assay
Set-up in all cases: key: below the threshold = too weak to quantify, mostly under pKd 3.1 to 4
HTRA2, O43464 = target: HTRA2, O43464
PDZD7_3, Q9H5P4 = target: T1, PDZD7_3, Q9H5P4
T1 sequence (Q9H5P4 857-944, limits assumed, looked up): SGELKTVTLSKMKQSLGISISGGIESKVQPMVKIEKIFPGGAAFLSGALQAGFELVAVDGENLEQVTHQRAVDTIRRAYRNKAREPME

TIAM2, Q8IVF5 = target: T2, TIAM2, Q8IVF5
T2 sequence (Q8IVF5 885-986, limits assumed, looked up): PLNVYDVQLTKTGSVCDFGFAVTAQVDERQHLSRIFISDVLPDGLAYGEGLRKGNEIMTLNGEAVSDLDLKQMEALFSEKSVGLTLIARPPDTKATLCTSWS

LNX1_1, Q8TBB1 = target: LNX1_1, Q8TBB1
GOPC, Q9HD26 = target: GOPC, Q9HD26
ARHGAP21, Q5T5U3 = target: T3, ARHGAP21, Q5T5U3
T3 sequence (Q5T5U3 45-169, limits assumed, looked up): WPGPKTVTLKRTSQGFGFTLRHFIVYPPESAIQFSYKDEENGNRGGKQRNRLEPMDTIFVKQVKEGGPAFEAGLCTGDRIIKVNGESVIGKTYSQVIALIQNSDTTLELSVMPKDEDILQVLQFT

DLG3_3, Q92796 = target: T4, DLG3_3, Q92796
T4 sequence (Q92796 374-475, limits assumed, looked up): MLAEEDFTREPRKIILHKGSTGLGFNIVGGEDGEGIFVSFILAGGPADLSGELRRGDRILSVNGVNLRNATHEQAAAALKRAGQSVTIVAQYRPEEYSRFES

MAGI2_4, Q86UL8 = target: MAGI2_4, Q86UL8
IL16_1, Q14005 = target: IL16_1, Q14005
DLG1_1, Q12959 = target: DLG1_1, Q12959
SHANK1, Q9Y566 = target: T5, SHANK1, Q9Y566
T5 sequence (Q9Y566 658-767, limits assumed, looked up): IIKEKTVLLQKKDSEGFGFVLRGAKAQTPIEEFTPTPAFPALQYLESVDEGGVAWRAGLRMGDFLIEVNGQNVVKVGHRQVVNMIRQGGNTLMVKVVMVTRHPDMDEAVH

MAST1, Q9Y2H9 = target: MAST1, Q9Y2H9
MPDZ_12, O75970 = target: T6, MPDZ_12, O75970
T6 sequence (O75970 1857-1958, limits assumed, looked up): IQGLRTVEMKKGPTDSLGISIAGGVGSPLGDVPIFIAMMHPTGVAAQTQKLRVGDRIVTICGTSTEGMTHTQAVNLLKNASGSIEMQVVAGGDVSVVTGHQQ

PTPN3, P26045 = target: PTPN3, P26045
LDB3, O75112 = target: LDB3, O75112
LIN7B, Q9HAP6 = target: T7, LIN7B, Q9HAP6
T7 sequence (Q9HAP6 88-185, limits assumed, looked up): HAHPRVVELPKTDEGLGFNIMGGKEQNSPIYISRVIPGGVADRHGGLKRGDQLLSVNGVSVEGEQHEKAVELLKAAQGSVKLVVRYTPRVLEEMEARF

SCRIB_3, Q14160 = target: SCRIB_3, Q14160
PDZRN3_1, Q9UPQ7 = target: T8, PDZRN3_1, Q9UPQ7
T8 sequence (Q9UPQ7 244-349, limits assumed, looked up): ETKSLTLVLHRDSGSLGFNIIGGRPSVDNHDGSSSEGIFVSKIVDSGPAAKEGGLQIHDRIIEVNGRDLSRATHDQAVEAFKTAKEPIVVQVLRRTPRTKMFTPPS

DFNB31_1, Q9P202 = target: T9, DFNB31_1, Q9P202
T9 sequence (Q9P202 135-233, limits assumed, looked up): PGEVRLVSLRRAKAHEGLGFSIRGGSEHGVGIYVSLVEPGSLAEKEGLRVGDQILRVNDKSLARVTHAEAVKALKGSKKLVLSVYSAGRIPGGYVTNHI

PARD3_3, Q8TEW0 = target: PARD3_3, Q8TEW0
SCRIB_2, Q14160 = target: SCRIB_2, Q14160
MPP7, Q5T2T1 = target: T10, MPP7, Q5T2T1
T10 sequence (Q5T2T1 134-230, limits assumed, looked up): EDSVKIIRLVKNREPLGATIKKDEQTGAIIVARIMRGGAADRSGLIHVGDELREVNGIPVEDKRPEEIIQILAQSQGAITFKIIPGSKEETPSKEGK

RHPN1, Q8TCX5 = target: T11, RHPN1, Q8TCX5
T11 sequence (Q8TCX5 508-602, limits assumed, looked up): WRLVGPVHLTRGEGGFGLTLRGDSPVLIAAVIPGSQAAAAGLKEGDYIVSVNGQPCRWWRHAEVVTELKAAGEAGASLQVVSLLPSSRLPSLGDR

DLG3_1, Q92796 = target: T12, DLG3_1, Q92796
T12 sequence (Q92796 125-227, limits assumed, looked up): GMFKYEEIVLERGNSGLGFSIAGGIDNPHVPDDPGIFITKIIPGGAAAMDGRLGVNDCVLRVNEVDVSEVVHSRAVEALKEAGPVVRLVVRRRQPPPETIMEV

ARHGEF12, Q9NZN5-2 = target: ARHGEF12, Q9NZN5-2
[1] = modified: phospho on T at position -2 from the C-terminal residue
[2] = plain residues with an end cap or a label only (N-terminal biotin on a linker: ado-ado)

SCRIB_3, Q14160, sequence (Q14160 999-1103): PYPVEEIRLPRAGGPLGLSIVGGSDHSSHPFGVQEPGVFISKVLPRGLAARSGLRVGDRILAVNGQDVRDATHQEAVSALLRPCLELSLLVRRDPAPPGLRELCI
MAST1, Q9Y2H9, sequence (Q9Y2H9 962-1065): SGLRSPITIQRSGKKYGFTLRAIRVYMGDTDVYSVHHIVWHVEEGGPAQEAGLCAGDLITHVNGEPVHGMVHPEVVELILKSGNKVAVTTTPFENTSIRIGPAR
ARHGEF12, Q9NZN5-2, sequence (Q9NZN5 other isoform, or with tags, fused parts or gaps): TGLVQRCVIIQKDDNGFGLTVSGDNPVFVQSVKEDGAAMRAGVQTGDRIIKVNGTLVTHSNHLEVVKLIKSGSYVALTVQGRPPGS
PTPN3, P26045, sequence (P26045 505-587): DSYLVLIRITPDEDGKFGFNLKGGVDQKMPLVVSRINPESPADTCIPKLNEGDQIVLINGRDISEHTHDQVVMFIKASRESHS
LNX1_1, Q8TBB1, sequence (Q8TBB1 261-371): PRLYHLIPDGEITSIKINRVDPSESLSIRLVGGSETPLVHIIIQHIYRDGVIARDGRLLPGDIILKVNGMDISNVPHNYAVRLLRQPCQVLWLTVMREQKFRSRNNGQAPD
HTRA2, O43464, sequence (O43464 355-458): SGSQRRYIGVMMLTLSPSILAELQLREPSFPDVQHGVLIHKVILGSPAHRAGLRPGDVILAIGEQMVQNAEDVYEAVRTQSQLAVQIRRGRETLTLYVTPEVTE
MAGI2_4, Q86UL8, sequence (Q86UL8 772-865): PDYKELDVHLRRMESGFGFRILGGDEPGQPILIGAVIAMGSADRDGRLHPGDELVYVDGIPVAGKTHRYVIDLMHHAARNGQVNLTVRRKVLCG
PARD3_3, Q8TEW0, sequence (Q8TEW0 582-685): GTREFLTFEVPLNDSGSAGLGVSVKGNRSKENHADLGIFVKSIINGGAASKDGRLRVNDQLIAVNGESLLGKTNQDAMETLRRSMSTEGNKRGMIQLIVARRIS
LDB3, O75112, sequence (O75112 1-94): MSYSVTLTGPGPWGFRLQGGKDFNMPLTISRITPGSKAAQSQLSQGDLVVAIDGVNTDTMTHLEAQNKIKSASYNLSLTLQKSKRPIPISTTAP
IL16_1, Q14005, sequence (Q14005 210-306): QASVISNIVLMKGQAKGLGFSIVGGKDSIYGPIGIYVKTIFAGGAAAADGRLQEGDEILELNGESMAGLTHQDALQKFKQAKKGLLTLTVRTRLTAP
SCRIB_2, Q14160, sequence (Q14160 857-960): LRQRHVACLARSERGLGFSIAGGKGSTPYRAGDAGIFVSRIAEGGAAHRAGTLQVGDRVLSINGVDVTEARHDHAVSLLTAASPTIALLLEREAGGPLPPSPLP

pKd (HTRA2, O43464; [1]): below the threshold
pKd (PDZD7_3, Q9H5P4; [1]): 3.5
pKd (TIAM2, Q8IVF5; [1]): below the threshold
pKd (LNX1_1, Q8TBB1; [1]): below the threshold
pKd (GOPC, Q9HD26; [1]): below the threshold
pKd (ARHGAP21, Q5T5U3; [1]): below the threshold
pKd (DLG3_3, Q92796; [1]): below the threshold
pKd (MAGI2_4, Q86UL8; [1]): below the threshold
pKd (IL16_1, Q14005; [1]): below the threshold
pKd (DLG1_1, Q12959; [1]): 3.58
pKd (SHANK1, Q9Y566; [1]): below the threshold
pKd (MAST1, Q9Y2H9; [1]): below the threshold
pKd (MPDZ_12, O75970; [1]): below the threshold
pKd (PTPN3, P26045; [1]): below the threshold
pKd (LDB3, O75112; [1]): 3.47
pKd (LIN7B, Q9HAP6; [1]): below the threshold
pKd (SCRIB_3, Q14160; [1]): below the threshold
pKd (PDZRN3_1, Q9UPQ7; [1]): below the threshold
pKd (DFNB31_1, Q9P202; [1]): below the threshold
pKd (PARD3_3, Q8TEW0; [1]): below the threshold
pKd (SCRIB_2, Q14160; [1]): below the threshold
pKd (MPP7, Q5T2T1; [1]): below the threshold
pKd (RHPN1, Q8TCX5; [1]): below the threshold
pKd (DLG3_1, Q92796; [1]): below the threshold
pKd (ARHGEF12, Q9NZN5-2; [1]): below the threshold
Binder: RRVRKLPSTTL [RPS6KA1_-2P, Q15418]

pKd (HTRA2, O43464; [2]): 3.54
pKd (PDZD7_3, Q9H5P4; [2]): below the threshold
pKd (TIAM2, Q8IVF5; [2]): below the threshold
pKd (LNX1_1, Q8TBB1; [2]): 3.66
pKd (GOPC, Q9HD26; [2]): below the threshold
pKd (ARHGAP21, Q5T5U3; [2]): 4.16
pKd (DLG3_3, Q92796; [2]): below the threshold
pKd (MAGI2_4, Q86UL8; [2]): below the threshold
pKd (IL16_1, Q14005; [2]): below the threshold
pKd (DLG1_1, Q12959; [2]): below the threshold
pKd (SHANK1, Q9Y566; [2]): below the threshold
pKd (MAST1, Q9Y2H9; [2]): 4.1
pKd (MPDZ_12, O75970; [2]): 3.58
pKd (PTPN3, P26045; [2]): below the threshold
pKd (LDB3, O75112; [2]): below the threshold
pKd (LIN7B, Q9HAP6; [2]): below the threshold
pKd (SCRIB_3, Q14160; [2]): below the threshold
pKd (PDZRN3_1, Q9UPQ7; [2]): 3.47
pKd (DFNB31_1, Q9P202; [2]): below the threshold
pKd (PARD3_3, Q8TEW0; [2]): 3.66
pKd (SCRIB_2, Q14160; [2]): below the threshold
pKd (MPP7, Q5T2T1; [2]): below the threshold
pKd (RHPN1, Q8TCX5; [2]): below the threshold
pKd (DLG3_1, Q92796; [2]): below the threshold
pKd (ARHGEF12, Q9NZN5-2; [2]): below the threshold
Binder: GQSVDLVFPV [AKIP1, Q9NQ31]

pKd (HTRA2, O43464; [2]): 3.83
pKd (PDZD7_3, Q9H5P4; [2]): 5.28
pKd (TIAM2, Q8IVF5; [2]): 3.76
pKd (LNX1_1, Q8TBB1; [2]): 3.98
pKd (GOPC, Q9HD26; [2]): 5.03
pKd (ARHGAP21, Q5T5U3; [2]): below the threshold
pKd (DLG3_3, Q92796; [2]): 4.63
pKd (MAGI2_4, Q86UL8; [2]): 4.82
pKd (IL16_1, Q14005; [2]): 4.33
pKd (DLG1_1, Q12959; [2]): 5.19
pKd (SHANK1, Q9Y566; [2]): 3.58
pKd (MAST1, Q9Y2H9; [2]): 4.61
pKd (MPDZ_12, O75970; [2]): below the threshold
pKd (PTPN3, P26045; [2]): 4.54
pKd (LDB3, O75112; [2]): below the threshold
pKd (LIN7B, Q9HAP6; [2]): 4.2
pKd (SCRIB_3, Q14160; [2]): 4.73
pKd (PDZRN3_1, Q9UPQ7; [2]): 3.77
pKd (DFNB31_1, Q9P202; [2]): 3.97
pKd (PARD3_3, Q8TEW0; [2]): below the threshold
pKd (SCRIB_2, Q14160; [2]): 4.28
pKd (MPP7, Q5T2T1; [2]): below the threshold
pKd (RHPN1, Q8TCX5; [2]): 4.06
pKd (DLG3_1, Q92796; [2]): 4.38
pKd (ARHGEF12, Q9NZN5-2; [2]): 4.86
Binder: RELVMRVTTV [MARCHF4, Q9P2E8]
